103 substances from the supplement of paper PMC12042874 can be followed below.

± gives the uncertainty stated by the source.

The nature of this data set: amyloid nucleation score (Sup35N fusion, yeast selection) (log enrichment); library NNK1; higher = more nucleation; inactive = no reads after selection. The method, boiled down: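 On medium lacking adenine and uracil, psi-negative yeast expressing peptides of 20 random codons fused to Sup35N were grown 7 days at 30°C after a 24-hour induction with 100 μM copper sulfate. Illumina sequencing of input and output plasmid inserts gave the reads, and sequences under 100 input reads were excluded. The nucleation score is the DiMSum log enrichment of output over input reads, centred on the mode score of non-aggregating sequences.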
SALIILMHVV: the amyloid nucleation score is -0.761 ± 1.2. Consider LLSYFLRNPYMSNGTTGLHG, for which the amyloid nucleation score was 0.144 ± 0.79. Next, SGSWNMCNHVRVNCYAIDKV: 0.167 ± 0.3. As for SESYEFVVHLHMESLRKLN, the figure is -0.245 ± 0.71; as for RYLVVQLRMGLYLFAFKDPD, -0.686 ± 0.42. On to SCTASMASPNLEF, for which the amyloid nucleation score result is “inactive”. Next, YCLSYEDCYWYVSVSLRYLW: -0.477 ± 0.31. Turning to TQCCGS, the amyloid nucleation score was -0.448 ± 1.7.

PRGLP showed an amyloid nucleation score of 0.694 ± 0.9. Next, LSNSSEVPHNSVNINDFVWD: “inactive”; LYLEARGGRVSYHQLFFGER: 2.45 ± 0.18. GLCGVILCELISNVREGKSK gave an amyloid nucleation score of 4.97 ± 0.084. As for SFTWFVTAANYKW, the figure is 1.8 ± 0.35; as for KKYLVNNYFLGFR, 0.127 ± 0.25; as for FYRSLVVNM, -0.081 ± 0.96. Next, TNILVAYRVISNGSTTPPRR: 3.56 ± 0.15. LLLDTLVCVVKHTNTCFSKW returned an amyloid nucleation score of 0.503 ± 0.26. In the case of FCVRTEYSGGELAARSLDFA, the amyloid nucleation score came out at 0.498 ± 0.97. In turn, ERGII registered an amyloid nucleation score of 0.621 ± 0.39. Regarding SKMILEV, the amyloid nucleation score result is “inactive”. For the substance TPSLAEADCL, the amyloid nucleation score was -0.909 ± 2.7.

Substance MQLHNGWMLITYKKGTSIIW yielded an amyloid nucleation score of -2.3 ± 1.8. In the case of GVTVKGASS, the amyloid nucleation score was -0.734 ± 0.66. Turning to PPLAYWVYPMVRTLFEGRVP, the amyloid nucleation score stood at 0.754 ± 0.45. As for MTRNELLSLSLARCVGANAL, the figure is 0.088 ± 1.2; as for SDVGLGNKKSWGVRAVCLDE, 0.452 ± 1.2; as for VKTNWLNWWLLNGLRASRCL, 0.062 ± 0.58. As for LGSMSTWVDRLRVANQVVVC, the figure is 0.785 ± 0.77; as for PGTSARRIDTKDVPYPFIPS, 1.16 ± 0.51. As for YVTMYVRMPGRFTTTHMWLI, the figure is -0.962 ± 0.63; as for IYARNIRRLTRFPDLLDLVM, 1.47 ± 0.17.

With SPGAWKHSNPDGDCNGLA, the amyloid nucleation score came to 0.525 ± 0.49.

Consider IVLFSPFTW, for which the amyloid nucleation score is -0.062 ± 0.31. Next, SGNGRRWSVLTDLAMLLLWL: -0.316 ± 0.41; YRHPVMTWEPSRDLSFVLCL: 0.388 ± 0.84. As for IFFYRYYNSHASSGERQNGR, the figure is 0.175 ± 0.56; as for VVSRWLRVFNFFEAKDFILV, -1.74 ± 2.7.

In the case of DGELMAYLSDGNQG, the amyloid nucleation score result was “inactive”.

In turn, VRDYAGPFSFPYRSLRSEWQ yielded an amyloid nucleation score of 0.193 ± 0.56. As for KMLFGH, the figure is -0.085 ± 0.79; as for LIEVWYVLIQGECDPWVTHG, 1.07 ± 0.97; as for LCKFYPAFTGTTCTNLLSVW, 0.321 ± 0.84. For NDRTKNQSYFP, the amyloid nucleation score was -0.195 ± 0.29. Next, ENDYITCQMSQSVQNVVVVK: 0.647 ± 0.43. Turning to SSRSGPPCACRTRKLACGMM, the amyloid nucleation score amounted to 0.145 ± 0.47. As for FTGRNSNMIFLSYWVCYYQN, the figure is 6.983 ± 0.05. Next, VGRGSGPRAQYMWLSKTEAG: -0.2 ± 0.47. As for RHVNEQDILREQFLLMDFRK, the figure is 0.753 ± 0.72; as for EKDVAIFLDLGYFHCTRSST, 1.97 ± 0.2; as for ITETSSSETMLLVVRTWEVW, 0.332 ± 0.63.

On to SHTWKGTSCAFAMHAQRGSQ, for which the amyloid nucleation score entry is “inactive”. On to ASDLGATKHNLHFIACIFSL, for which the amyloid nucleation score stood at 4.77 ± 0.074.

Consider GTDYVEGCCSLNFRCCCVNG, for which the amyloid nucleation score was determined as 5.117 ± 0.05.

RWGAYVYGQSVSINGIRIVL showed an amyloid nucleation score of 6.665 ± 0.045. As for EGPMLVCVLVVSTTGIGRGC, the figure is 1.58 ± 0.59; as for PGTGPVCQNGDVAF, -0.948 ± 1.7. As for GCFEFVCEVAVGVSLDYSYL, the figure is -0.085 ± 0.28; as for TFIITSRFLYSDVAT, -1.33 ± 0.45.

Turning to CAGWFRTFGAYKDAMARLAR, the amyloid nucleation score result is “inactive”. RFRYDTVMMNMFLNRVSFGG: the amyloid nucleation score stood at 1.38 ± 0.4. Take DMLSEIFGSSPNEYAPH: the amyloid nucleation score worked out at 0.521 ± 0.29.

The substance AGSFFSYGQFVKFTVLYHSE had an amyloid nucleation score of -0.053 ± 0.6.

Turning to GRMEGTGNYMVYKDQEGVNG, the amyloid nucleation score result was “inactive”. The substance YSVWVYRLMRYELNVTFCR came in with an amyloid nucleation score of 0.093 ± 0.2.

NLTRHVDVANPAPRLPHLGV had an amyloid nucleation score of -0.146 ± 0.46. As to LFTKNSIGGVFPCPPETARY, the amyloid nucleation score was -1.18 ± 2.4. Next, LYYNASTAIELNLEYSIKWL: 0.17 ± 0.8; LNYLYDIMLSSLTSQTDSMS: -0.689 ± 0.66; FNLITSD: 0.074 ± 0.52. As to WVLYSIILCERCNHKGTSDG, the amyloid nucleation score is 0.057 ± 0.53.

With TVMSNHGHLMKYYFVRLEGF, the amyloid nucleation score came to 0.759 ± 0.62. Next, WRLFIWDRGSLWFEISYYFR: -0.164 ± 0.3; IVQIIPGVCCA: 0.311 ± 1.2. On to SGHFILHGFYFCYKKCALIY, for which the amyloid nucleation score was found to be 1.06 ± 0.81. In turn, IGMALKWNFLCKSSDRFLRV gave an amyloid nucleation score of 0.296 ± 0.97. In the case of KISVSTVLSLLFGI, the amyloid nucleation score worked out at 1.3 ± 0.76. As to IRSQKRYLCSGSLLCKVSRR, the amyloid nucleation score came to 1.38 ± 0.51.

In the case of ASLHHKSWTDHADTMTPPRT, the amyloid nucleation score entry is “inactive”. In the case of GVRGVSKMECKYQKFIGLTG, the amyloid nucleation score was determined as 1.78 ± 0.61.

The substance SFLDMSTKVEYESIWTSTVA gave an amyloid nucleation score of 0.568 ± 0.45.

MICYLF: the amyloid nucleation score came out at 0.019 ± 0.26. Next, RICPKNCMSISVI: 0.305 ± 0.29; EAGQLLL: “inactive”; HCAYRFASENEMKGG: 0.321 ± 0.65.

Substance VPFLWLRLCRRCYLTMGCSI displayed an amyloid nucleation score of -0.491 ± 0.97. For ATMVMELMVSELGLEEVFDV, the amyloid nucleation score was -0.216 ± 0.49.

On to GQGALDYF, for which the amyloid nucleation score entry is “inactive”. In the case of LSWVVVVSNKYGQTMTCVVI, the amyloid nucleation score is -0.326 ± 0.5.

For ICHGAEHNV, the amyloid nucleation score is -0.735 ± 1.7. Substance PDSLFPLCFLRLWLISSIVR showed an amyloid nucleation score of 1.49 ± 0.84. Next, YGEHWSS: 0.645 ± 1.2.

Turning to SSVRLDKNN, the amyloid nucleation score is -0.315 ± 0.52.

Regarding NSGFRAASS, the amyloid nucleation score worked out at 2.02 ± 0.55. Next, ALNFTYLVSSNKHRSED: 5.12 ± 0.1; SSEIDYVFMAPREV: -0.06 ± 0.63. The substance GALCCLCRSNHYVLQCGVKC yielded an amyloid nucleation score of 1.47 ± 0.7. Turning to TVNRG, the amyloid nucleation score was 0.409 ± 1.4. As to TFIMSQSWFMQWPRTMAAMT, the amyloid nucleation score was -0.346 ± 0.45. Next, NPNTKYINCPHRVAFRGKLM: 0.552 ± 0.74. As for WSPTVAMLDGAVRGVAPATH, the amyloid nucleation score is -0.7 ± 0.57. Next, DFSVQKSGSYQTEHYLVFRN: -0.12 ± 0.21.

As for DSYSLSN, the amyloid nucleation score was -0.179 ± 0.27.

VLFAR registered an amyloid nucleation score of 0.566 ± 0.48.
